Laboratory results published in patent publication US20110305750.

System: GST-MT1-MMP cytoplasmic tail fusion protein

recombinant Src kinase
tyrosine phosphorylation of GST-MT in an in vitro phosphorylation assay (western blot): Src-mediated tyrosine phosphorylation of GST-MT
